From publication PMC7144947
Read-outs that look alike come from different tables or passages of the source.

Key:
[1] = molecular target: T1, Sox2-ΔRBM (Mus musculus, UniProt P48432 1-319, del121-180); assay: in vitro RIP
[2] = molecular target: Sox11 (UniProt Q7M6Y2 1-395); assay: EMSA
[3] = molecular target: T2, Sox2 (Mus musculus, UniProt P48432 1-319); assay: EMSA
[4] = molecular target: T1, Sox2-ΔRBM; assay: EMSA
[5] = molecular target: Sox2(180-319) (Mus musculus, UniProt P48432 180-319); assay: EMSA
[6] = molecular target: Sox2(120-319) (Mus musculus, UniProt P48432 120-319); assay: EMSA
[7] = molecular target: T3, Sox2-ΔHMG (Mus musculus, UniProt P48432 1-319, del41-118); assay: EMSA
[8] = molecular target: T2, Sox2; assay: EMSA; remark: listed apart in the source
[9] = molecular target: Sox2(1-120) (Mus musculus, UniProt P48432 1-120); assay: EMSA
[10] = molecular target: Sox2(1-180) (Mus musculus, UniProt P48432 1-180); assay: EMSA
[11] = molecular target: Sox1 (Mus musculus, UniProt P53783 1-391); assay: EMSA
[12] = molecular target: T1, Sox2-ΔRBM; assay: EMSA; remark: listed apart in the source
[13] = molecular target: T1, Sox2-ΔRBM; assay: competition
[14] = molecular target: Sox2-HMG (Mus musculus, UniProt P48432 41-120); assay: competition
[15] = molecular target: T3, Sox2-ΔHMG; assay: competition
[16] = molecular target: T3, Sox2-ΔHMG; assay: competition; remark: listed apart in the source

Chain of Sox11 (Q7M6Y2 whole entry): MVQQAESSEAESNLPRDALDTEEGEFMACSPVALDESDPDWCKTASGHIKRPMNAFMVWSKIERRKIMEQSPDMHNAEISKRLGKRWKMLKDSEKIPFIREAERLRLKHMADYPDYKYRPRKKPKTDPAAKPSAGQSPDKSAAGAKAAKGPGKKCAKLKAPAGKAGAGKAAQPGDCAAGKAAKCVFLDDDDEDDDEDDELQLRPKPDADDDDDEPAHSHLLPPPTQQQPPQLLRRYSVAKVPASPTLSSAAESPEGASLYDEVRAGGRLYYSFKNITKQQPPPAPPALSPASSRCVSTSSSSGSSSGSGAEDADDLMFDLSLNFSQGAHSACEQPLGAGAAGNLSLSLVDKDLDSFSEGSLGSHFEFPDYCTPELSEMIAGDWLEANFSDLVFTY
Chain of Sox1 (P53783 whole entry): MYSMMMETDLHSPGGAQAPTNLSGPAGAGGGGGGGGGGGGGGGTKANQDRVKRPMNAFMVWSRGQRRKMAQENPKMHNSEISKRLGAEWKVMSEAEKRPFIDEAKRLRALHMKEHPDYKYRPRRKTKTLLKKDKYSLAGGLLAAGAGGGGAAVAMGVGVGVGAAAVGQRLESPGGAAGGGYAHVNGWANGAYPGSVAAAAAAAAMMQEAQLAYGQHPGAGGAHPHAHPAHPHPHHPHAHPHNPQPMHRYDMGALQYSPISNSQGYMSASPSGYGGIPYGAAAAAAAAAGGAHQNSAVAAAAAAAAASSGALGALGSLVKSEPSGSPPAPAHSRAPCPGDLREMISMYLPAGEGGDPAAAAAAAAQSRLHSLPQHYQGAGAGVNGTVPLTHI

**Q.** Does CGCGGCUUGCCCUAUUAUAGUGUAG (ssRNA) [12th-24 Mut3] bind [1]?
**A.** Result: binds

B1: Sox2/Prox1 DNA (dsDNA)
DNA 1: CTAGCATTGTCTGGG
DNA 2: CCCAGACAATGCTAG
**Q.** Does B1 bind [2]?
**A.** Result: binds

**Q.** Does B1 bind [3]?
**A.** Result: binds

**Q.** Does B1 bind [4]?
**A.** Result: binds

**Q.** Which results are given for CAGCUUUUCCCUGUAGUCAUGAAUG (ssRNA) [Dnmt3b RNA]?
**A.** binding result [5]: no binding; binding result [6]: binds; binding result [2]: no binding; binding result [7]: binds

**Q.** Does GCGGCAAGCCCAUACUCGCGUUCAA (ssRNA) [12th-15 RNA] bind [2]?
**A.** Result: no binding

**Q.** Does GCGGCAAGCCCAUACUCGCGUUCAA (ssRNA) [12th-15 RNA] bind [8]?
**A.** Result: binds

**Q.** Does CGCGGCUUGCCCUAUCGCGGUGUAG (structured_RNA) [12th-24 RNA] bind [9]?
**A.** Result: binds

**Q.** Does CGCGGCUUGCCCUAUCGCGGUGUAG (structured_RNA) [12th-24 RNA] bind [10]?
**A.** Result: binds

**Q.** Does CGCGGCUUGCCCUAUCGCGGUGUAG (structured_RNA) [12th-24 RNA] bind [5]?
**A.** Result: no binding

**Q.** Does CGCGGCUUGCCCUAUCGCGGUGUAG (structured_RNA) [12th-24 RNA] bind [7]?
**A.** Result: binds

**Q.** Does CGCGGCUUGCCCUAUCGCGGUGUAG (structured_RNA) [12th-24 RNA] bind [11]?
**A.** Result: binds

**Q.** Does CGCGGCUUGCCCUAUCGCGGUGUAG (structured_RNA) [12th-24 RNA] bind [12]?
**A.** Result: binds

**Q.** Does CGCGGCUUGCCCUAUCGCGGUGUAG (structured_RNA) [12th-24 RNA] bind [8]?
**A.** Result: binds

**Q.** Does CGCGGCUUGCCCUAUCGCGGUGUAG (structured_RNA) [12th-24 RNA unlabelled] bind [13]?
**A.** Result: binds

**Q.** Does CGCGGCUUGCCCUAUCGCGGUGUAG (structured_RNA) [12th-24 RNA unlabelled] bind [14]?
**A.** Result: no binding

**Q.** Does CGCGGCUUGCCCUAUCGCGGUGUAG (structured_RNA) [12th-24 RNA unlabelled] bind [15]?
**A.** Result: binds

**Q.** What does the source list for CCUGCAGCUCAUGACCCCUGCUUCC (ssRNA) [Dicer1 RNA]?
**A.** binding result [5]: no binding; binding result [6]: binds; binding result [2]: no binding; binding result [7]: binds

B2: Prox1 DNA unlabelled (dsDNA)
DNA 1: CTAGCATTGTCTGGG
DNA 2: CCCAGACAATGCTAG
**Q.** Does B2 bind [13]?
**A.** Result: binds

**Q.** Does B2 bind [14]?
**A.** Result: binds

**Q.** Does B2 bind [16]?
**A.** Result: no binding
